Test results published in the RNAGym collection of RNA variant scans (doi:10.7554/elife.80360).

B1: Hairpin Ribozyme (parent)
chain: GUCCUCUUUCACGUGCGCGUGAAAGAGAGAAGUGAACCAGAGAAACACACGUUGUGGUAUAUUACCUGGUA

Variants of: B1
Experiment: self-cleavage, relative activity (ratio to wild type); higher = more cleavage; co-transcriptional

Point of comparison: C18A G54C, self-cleavage 0.395. Against it:
- G19C A39G — lower, 0.28
- C18A U20G — higher, 0.946
- C18A U20A — higher, 0.917
- G19A A45U — lower, 0.1
- G19A C48A — lower, 0.136
- G19U C38G — lower, 0.225
- G19C U52G — higher, 0.898
- C18G G19C — higher, 0.804
- C18U U70A — higher, 0.899
- C18G G69C — lower, 0.205
- C18A C46U — lower, 0.1
- C18A C46A — lower, 0.231
- C18A C50A — lower, 0.314
- C18A C50U — higher, 0.428
- C18G A49C — lower, 0.12
- C18G A49U — lower, 0.196
- G19A A47U — lower, 0.144
- G19A U20C — higher, 1.12
- G19A U20A — higher, 0.762
- G19C G29C — lower, 0.111
- C18U A59U — lower, 0.176
- C18U A59C — lower, 0.237
- G19C A43C — lower, 0.11
- C18G G29A — lower, 0.133
- C18U U53A — higher, 1
- C18U U53G — higher, 0.644
- G17U G21U — higher, 0.53
- C18G C37A — lower, 0.235
- C18G C37U — higher, 0.493
- C18G C37G — lower, 0.259
- G19A G42U — lower, 0.331
- G19U C37G — lower, 0.341
- G19C A47G — lower, 0.277
- C18G A45C — lower, 0.152
- G19U A41U — higher, 1.24
- G19C A64G — higher, 0.545
- C18G G27C — lower, 0.0884
- G19A U58A — higher, 0.557
- G19A U58G — higher, 0.583
- G19C G25U — higher, 0.623
- G19C G25A — higher, 0.512
- C18G C50G — lower, 0.176
- C18G C50A — lower, 0.245
- C18U A43U — lower, 0.102
- C18G U20A — higher, 0.772
- C18U A61C — lower, 0.17
- C18U A61U — lower, 0.22
- C18U A49C — lower, 0.193
- C18U A49G — higher, 0.567
- G19U A61U — lower, 0.183
- G17U G54C — higher, 0.413
- C18A U62G — lower, 0.138
- C18A U62C — lower, 0.22
- C18A U62A — lower, 0.204
- C18A G40C — lower, 0.0959
- C18A G19A — higher, 0.886
- G19A U62C — lower, 0.278
- C18G A36U — higher, 0.728
- C18U A39C — higher, 0.66
- C18U A39U — higher, 0.429
- C18A U70C — higher, 0.952
- G19A A71U — higher, 0.648
- G19A A71G — higher, 0.857
- G17U U55C — lower, 0.301
- G19A U67A — lower, 0.264
- G19C U67C — lower, 0.176
- G19C C50A — lower, 0.264
- C18G U70C — higher, 0.881
- G17U U70A — higher, 0.95
- C18A U33A — lower, 0.115
- C18A U33C — lower, 0.132
- C18A U33G — lower, 0.15
- G19C C65G — lower, 0.25
- G19C C65A — higher, 0.877
- G19C A26U — higher, 0.719
- C18U U20G — higher, 1.13
- C18G A22C — higher, 0.79
- C18G A22G — higher, 0.804
- C18G A59C — lower, 0.224
- C18U U67G — lower, 0.303
- G19A A22C — higher, 0.677
- C18U C37U — higher, 0.713
- C18A C66U — higher, 0.594
- C18A C66G — lower, 0.113
- C18A C66A — lower, 0.258
- G19U G32C — lower, 0.137
- G19U G32U — lower, 0.118
- C18U G54U — higher, 0.702
- C18U G54A — higher, 0.695
- C18A A30C — lower, 0.166
- G19A G68A — lower, 0.265
- G19A G68C — lower, 0.194
- G17U U67A — lower, 0.249
- G17U U67G — lower, 0.278
- G19U A59C — lower, 0.242
- C18A A71G — higher, 1.14
- G17U G34A — higher, 1.24
- C18U C50U — lower, 0.326
- C18U C48U — lower, 0.0571
- C18U C48A — lower, 0.134
- G19U C65U — lower, 0.306
- G19A G69U — lower, 0.213
- C18A A23U — higher, 0.923
- C18A A23C — higher, 0.863
- C18A C38A — lower, 0.132
- G17U C46G — lower, 0.192
- C18A A49U — lower, 0.264
- C18A A49G — higher, 0.54
- G19A U53C — higher, 0.854
- G19A U53G — higher, 0.691
- C18U A26G — higher, 0.975
- C18U A26U — higher, 0.59
- C18U C66G — lower, 0.202
- G17U G69U — lower, 0.258
- G17U U63G — lower, 0.0762
- G17U U63C — lower, 0.164
- C18A A44G — lower, 0.199
- C18A A44U — lower, 0.105
- G19A G29A — lower, 0.173
- G19A G29C — lower, 0.184
- C18A A22G — higher, 0.857
- G19C G34A — higher, 1.08
- G19A A64U — lower, 0.198
- C18G A64G — higher, 0.463
- C18G A64U — lower, 0.18
- C18G A64C — lower, 0.158
- C18G U62G — lower, 0.163
- G19U A30C — lower, 0.128
- C18U A31U — lower, 0.112
- C18U A31G — higher, 0.721
- C18U A31C — lower, 0.0854
- G19A A43C — lower, 0.15
- G17U U60A — higher, 0.738
- G19C A22U — higher, 0.487
- C18G U67G — lower, 0.275
- G19U A26C — lower, 0.238
- G19U A26G — higher, 0.849
- G19A A49G — higher, 0.595
- C18G C38G — lower, 0.125
- C18G C38A — lower, 0.11
- G17U G51C — higher, 1.17
- G17U G51A — higher, 0.946
- G19C G21C — higher, 0.493
- G19A A44C — lower, 0.0966
- G19C U53C — higher, 0.679
- G19C U63C — lower, 0.168
- G19C U63A — lower, 0.107
- G19C U63G — lower, 0.123
- C18U C65U — lower, 0.373
- C18G A43C — lower, 0.122
- C18G A43U — lower, 0.0776
- G19C A41U — higher, 1.11
- G19C A41C — higher, 1.24
- C18A C37U — higher, 0.64
- G19U A23G — higher, 0.932
- C18A U53G — higher, 0.891
- C18A U53A — higher, 1.02
- G19C C48U — lower, 0.132
- G19C C48A — lower, 0.122
- C18A G34A — higher, 1.33
- C18A A47C — higher, 0.424
- G17U U33C — lower, 0.0633
- G17U U33G — lower, 0.186
- G19A A24C — higher, 0.615
- G19U G42C — higher, 0.492
- G19C G69U — lower, 0.212
